B1: Pistol ribozyme (parent)
chain: GGGUCGUUGUUCCAUAAUCGCGUGGAUAUGGCACGCAAGUUUCUACCGGGCACCGUAAAUGUCCGACUGGAGCCGUUCGGGCGGCUAUAAACAGACCUCAGGCCCGAAGCGUGGCGGCACCUGCCGCCGGUGGUAAAAAAGAUCGGAAGAGCACACGUCU

Variants of: B1
Test: aptazyme ON/OFF ratio, guanine; higher = stronger switching; co-transcriptional cleavage with and without guanine
With GGGUCGGCGCUGCAUAAUCGCGUGGAUAUGGCACGCAAGUUUCUACCGGGCACCGUAAAUGUCCGACUGGAGCCGUUCGGGCGGCUAUAAACAGACCUCAGGCCCGAAGCGUGGCGGCACCUGCCGCCGGUGGUAAAAAAGAUCGGAAGAGCACACGUCU [U7G U8C U10C C12G] the “aptazyme ON/OFF ratio” value was 1.37. For GGGUCGGCGCUUCAUAAUCGCGUGGAUAUGGCACGCAAGUUUCUACCGGGCACCGUAAAUGUCCGACUGGAGCCGUUCGGGCGGCUAUAAACAGACCUCAGGCCCGAAGCGUGGCGGCACCUGCCGCCGGUGGUAAAAAAGAUCGGAAGAGCACACGUCU [U7G U8C U10C C12U], the “aptazyme ON/OFF ratio” value was 3.24. With GGGUCGGCGCACCAUAAUCGCGUGGAUAUGGCACGCAAGUUUCUACCGGGCACCGUAAAUGUCCGACUGGAGCCGUUCGGGCGGCUAUAAACAGACCUCAGGCCCGAAGCGUGGCGGCACCUGCCGCCGGUGGUAAAAAAGAUCGGAAGAGCACACGUCU [U7G U8C U10C U11A] the “aptazyme ON/OFF ratio” value was 2.21. For GGGUCGGCGCUCUAUAAUCGCGUGGAUAUGGCACGCAAGUUUCUACCGGGCACCGUAAAUGUCCGACUGGAGCCGUUCGGGCGGCUAUAAACAGACCUCAGGCCCGAAGCGUGGCGGCACCUGCCGCCGGUGGUAAAAAAGAUCGGAAGAGCACACGUCU [U7G U8C U10C C13U], the “aptazyme ON/OFF ratio” value was 1.64. In the case of GGGUCGGCGCUCGAUAAUCGCGUGGAUAUGGCACGCAAGUUUCUACCGGGCACCGUAAAUGUCCGACUGGAGCCGUUCGGGCGGCUAUAAACAGACCUCAGGCCCGAAGCGUGGCGGCACCUGCCGCCGGUGGUAAAAAAGAUCGGAAGAGCACACGUCU [U7G U8C U10C C13G], the “aptazyme ON/OFF ratio” value is reported as 1.07. With GGGUCGGCGCUCAAUAAUCGCGUGGAUAUGGCACGCAAGUUUCUACCGGGCACCGUAAAUGUCCGACUGGAGCCGUUCGGGCGGCUAUAAACAGACCUCAGGCCCGAAGCGUGGCGGCACCUGCCGCCGGUGGUAAAAAAGAUCGGAAGAGCACACGUCU [U7G U8C U10C C13A] the “aptazyme ON/OFF ratio” value was 1.07. For GGGUCGGCGCUUUAUAAUCGCGUGGAUAUGGCACGCAAGUUUCUACCGGGCACCGUAAAUGUCCGACUGGAGCCGUUCGGGCGGCUAUAAACAGACCUCAGGCCCGAAGCGUGGCGGCACCUGCCGCCGGUGGUAAAAAAGAUCGGAAGAGCACACGUCU [U7G U8C U10C C12U C13U], the “aptazyme ON/OFF ratio” value was 1.27. In the case of GGGUCGGCGCUUAAUAAUCGCGUGGAUAUGGCACGCAAGUUUCUACCGGGCACCGUAAAUGUCCGACUGGAGCCGUUCGGGCGGCUAUAAACAGACCUCAGGCCCGAAGCGUGGCGGCACCUGCCGCCGGUGGUAAAAAAGAUCGGAAGAGCACACGUCU [U7G U8C U10C C12U C13A], the “aptazyme ON/OFF ratio” value is reported as 1.15. In the case of GGGUCGGCGCUUGAUAAUCGCGUGGAUAUGGCACGCAAGUUUCUACCGGGCACCGUAAAUGUCCGACUGGAGCCGUUCGGGCGGCUAUAAACAGACCUCAGGCCCGAAGCGUGGCGGCACCUGCCGCCGGUGGUAAAAAAGAUCGGAAGAGCACACGUCU [U7G U8C U10C C12U C13G], the “aptazyme ON/OFF ratio” value is reported as 1.19. In the case of GGGUCGGCGCUAUAUAAUCGCGUGGAUAUGGCACGCAAGUUUCUACCGGGCACCGUAAAUGUCCGACUGGAGCCGUUCGGGCGGCUAUAAACAGACCUCAGGCCCGAAGCGUGGCGGCACCUGCCGCCGGUGGUAAAAAAGAUCGGAAGAGCACACGUCU [U7G U8C U10C C12A C13U], the “aptazyme ON/OFF ratio” value is reported as 1.24. With GGGUCGGCGCUAGAUAAUCGCGUGGAUAUGGCACGCAAGUUUCUACCGGGCACCGUAAAUGUCCGACUGGAGCCGUUCGGGCGGCUAUAAACAGACCUCAGGCCCGAAGCGUGGCGGCACCUGCCGCCGGUGGUAAAAAAGAUCGGAAGAGCACACGUCU [U7G U8C U10C C12A C13G] the “aptazyme ON/OFF ratio” value was 1.16. For GGGUCGGCGCAACAUAAUCGCGUGGAUAUGGCACGCAAGUUUCUACCGGGCACCGUAAAUGUCCGACUGGAGCCGUUCGGGCGGCUAUAAACAGACCUCAGGCCCGAAGCGUGGCGGCACCUGCCGCCGGUGGUAAAAAAGAUCGGAAGAGCACACGUCU [U7G U8C U10C U11A C12A], the “aptazyme ON/OFF ratio” value was 1.44. With GGGUCGGCGCUGGAUAAUCGCGUGGAUAUGGCACGCAAGUUUCUACCGGGCACCGUAAAUGUCCGACUGGAGCCGUUCGGGCGGCUAUAAACAGACCUCAGGCCCGAAGCGUGGCGGCACCUGCCGCCGGUGGUAAAAAAGAUCGGAAGAGCACACGUCU [U7G U8C U10C C12G C13G] the “aptazyme ON/OFF ratio” value was 1.24. For GGGUCGGCGCUGAAUAAUCGCGUGGAUAUGGCACGCAAGUUUCUACCGGGCACCGUAAAUGUCCGACUGGAGCCGUUCGGGCGGCUAUAAACAGACCUCAGGCCCGAAGCGUGGCGGCACCUGCCGCCGGUGGUAAAAAAGAUCGGAAGAGCACACGUCU [U7G U8C U10C C12G C13A], the “aptazyme ON/OFF ratio” value was 1.2. For GGGUCGGCGCUGUAUAAUCGCGUGGAUAUGGCACGCAAGUUUCUACCGGGCACCGUAAAUGUCCGACUGGAGCCGUUCGGGCGGCUAUAAACAGACCUCAGGCCCGAAGCGUGGCGGCACCUGCCGCCGGUGGUAAAAAAGAUCGGAAGAGCACACGUCU [U7G U8C U10C C12G C13U], the “aptazyme ON/OFF ratio” value was 1.28. With GGGUCGGCGCAAUAUAAUCGCGUGGAUAUGGCACGCAAGUUUCUACCGGGCACCGUAAAUGUCCGACUGGAGCCGUUCGGGCGGCUAUAAACAGACCUCAGGCCCGAAGCGUGGCGGCACCUGCCGCCGGUGGUAAAAAAGAUCGGAAGAGCACACGUCU [U7G U8C U10C U11A C12A C13U] the “aptazyme ON/OFF ratio” value was 1.21. For GGGUCGGCGCAAGAUAAUCGCGUGGAUAUGGCACGCAAGUUUCUACCGGGCACCGUAAAUGUCCGACUGGAGCCGUUCGGGCGGCUAUAAACAGACCUCAGGCCCGAAGCGUGGCGGCACCUGCCGCCGGUGGUAAAAAAGAUCGGAAGAGCACACGUCU [U7G U8C U10C U11A C12A C13G], the “aptazyme ON/OFF ratio” value was 1.14. In the case of GGGUCGGCGCAAAAUAAUCGCGUGGAUAUGGCACGCAAGUUUCUACCGGGCACCGUAAAUGUCCGACUGGAGCCGUUCGGGCGGCUAUAAACAGACCUCAGGCCCGAAGCGUGGCGGCACCUGCCGCCGGUGGUAAAAAAGAUCGGAAGAGCACACGUCU [U7G U8C U10C U11A C12A C13A], the “aptazyme ON/OFF ratio” value is reported as 1.26.

Source: the RNAGym collection of RNA variant scans (doi:10.1021/acssynbio.7b00057)
